Results reported in a protein production outcome set (Wang et al. 2014).

Experiment: label from the status in PepcDB records

| Sequence | protein production |
| --- | --- |
| GSHFYFLSKRRRNLLRNPCGEEDLEGWSDVEHGGDGWKVEELPGDNGVEFTQDDSVKKYFASSFEWCRKAQVIDLQAEGYWEELLDTTQPAIVVKDWYSGRTDAGSLYELTVRLLSENEDVLAEFATGQVAVPEDGSWMEISHTFIDYGPGVRFVRFEHGGQDSVYWKGWFGARVTNSSVWVEP | not failed |
| MNFSTSFWQGFRALVPLWLGTVPFALAYAVTARAAGLSVGDTCLMSLTTFAGASQFAAAGLFGAHAGGLSIVLTTFLLNARHLLYGLSLARELRLTLPQRVVAAQFLTDEAYGVAVVSGARLPGGLTFAFLLGAELSLYLSWNVSTLLGALAGSVLPPPEQLGVGVVFPLAFLGLLVPLVVDRLSLLVALAAGLGGWALSRVLPGGLVILLAGVGGALLGAALLTRREQRAGVRA | failed |
| MSGAGKKIADVAFKASRTIDWDGMAKVLVTDEARREFSNLRRAFDEVNTQLQTKFSQEPEPIDWDYYRKGIGAGIVDKYKEAYDSIEIPKYVDKVTPEYKPKFDALLVELKEAEQKSLKESERLEKEIADVQEISKKLSTMTADEYFEKHPELKKKFDDEIRNDNWGY | failed |
| MLLNKYFLANRNINFIVMALLFSSSYISASSFISGPSAVYKYGLSFILLATIQIPTTLIVFIIVGQRLNRESKKINAINIIDYIRHRYESDFLALMSGFVLIFFSMFLISAQLIGGAKLIEVFWGIDYVVGLTFFAFLVFIYVFFGGFKAVAYTDLIQGFLMLVSSVILFSKMLDLGGGINNLFKTATSSLDKSLLLPSNADLKPQYIISFWILIGIGILGQPQIINNFIAFKDENAIKFSLPISTFIISFLIVLMHLIGFFAIILFPDLSPNDKVVLNVALKVLNPFSCFMFFIGLLSAIMSTVDSNLLLITSVLIKSIFIYKEDLKEDVKIGRIIMISNIFFILIILIFSLFPPNFLFFINIFAFGALEVSFFPIIVFGLYLNFVSKIAAFASMFLGLIFYLSILFFGLNIWFFHPVFPSFFVSIFTFLVVNFFCKKNSKVC | failed |
| MSKKLVLLIISILCFTALTGCWIVRSDLSGDIIIGDGHGGTSHSIIKYNPATNKFESVEPGLYYEVEYNDDKSKILCYRFLENSEVRRFEICEYDIKSKKFGEPIFIPGDSQKFKGSVKYVPNSDRISFVLDYELHIYDRSSGTLTKLFEVAFNSYSWDNTGKKLLYGDYDENIYIYDMESNEKRKILTGICPVYSNSNEYIAYIGIDQRLTVYNVNTGKKWRTVPVDDSARYIFSPDDKYILLGTEYADLMSFPHYTLYILDYKTGKKKRLFGGEGNVPSLDWK | failed |
| MKLDDLNLFRQVVENGSYTAASRKTLIPVATITRRIQALEDSLDIRLLNRHARKLSLTEAGQKFYDECAPILATLVNTSEYLGEECRGAAGKLKIAAPSNLTKRMIQPILNKFMLLYPDISINLTMSNQPEQLDPTDWDIIFRVGKQRDSSLIARQIGSLEDILVASPSYLEKNSEPTHAQELHKHSLLKGNPLMRWRLTNKDGESVTITDAGRFEASELNVIRMACSNGLGITLMPDIMISQYLEEGSLIRVLSDWSANPRDIYMIYNYKDHQPEKVRLFIDFVSNHIPD | failed |
| MAGKLDPYRRKRHFGATPEPEGAHGHHAKAGAKPAARASARGTHPLRFVIQEHHARRLHYDFRLELDGTLKSWAVPKGPSFDPSVKRLAVHVEDHPLEYASFEGQIPEGHYGAGSVVVWDEGTWTPDGGVAQAREGYRAGKLTFRLDGEKLHGGWALVRSGRQEGRQEQWLLIKERDDDARSMDEFDVVGERPGSVHDGAASARADAKNGSARGSRSGQREKSGTSAARHDDHRHDGHAGTPIDPSRIEGAVRAPLPEHVAPQLATLVDGPPTQGDWCYELKFDGYRILARISGKGARRHVKLMTREGRDWTAKLRAQRDALAALDVDAAWLDGEAVVLGKNGLPDFQALQNAFGGGHSDEITLFVFDLPYLDGYDLRDAPLTARRALLEPLFADSDPTRLRFSPDLGNDVASLIASACDTGLEGLIGKRAESRYRAGRSPAWIKLKCRRRQEFVIGGYTEPSGSRHGFGALLLGVHEPAADGKRRRGPGPLRYVGRVGTGFDTRMLDRLTPILRKHERDTMPFDPPPRERSRTPVHWIEPVLVAECEFAEWTGDGIVRQAAFIALREDKPAARIVREVPKHTETEVQMEQRQTTRHERHKPKGAARAERDTSDASDGKHPARSRGSRRAEADDTGPDQLGRVRISHPERVIDSHSGTRKIDLARYWQWVAPWLLRDLKGRPVSLVRAPGDISGELFFQKHAERREIPFVTQHEGLDPGHGPLLSLDSVDALLGAAQMGTIELHTWNAHASNIERPDRIVFDLDPDPALPWSAMIDAAQLVRGLLDELGLISFCKTSGGKGLHVVVPITRHMGWDEVKDFSRAVAQHVAGALPDRFTATMGPKHRRGKIFIDYLRNGRGASTIAAYSVRARPGLGVSVPLRWDEVPDTTGGAQWTIDTLHERLDRLKRDPWDGYDDTRQRITAQMRARLGTS | failed |
| MTDAEYGLPRRSLLAGAAGAGAAFALPAGAAQAAPAASPQAGAERRHPRNWPDPEPYGAADTRADLWPREDNSFVLPLELRPRDQERGTVWMRDTYVNCFVVDGRPLYVATGTTRVPGLEAAGPWNDGIFVWLAPSLDGPWRLADTTGIRPGAERGKVWSPEFAGENRPGRTVVAPWQEYWHDEQFGKRGQAWAPELHYFRDTWYLVACMGDHSRKVGSFMLVSEGGVEGPYRLVEGNLDKPFGDSFIGGPKFIEPGAYHHIDGGLFSEGDDAWLVLHNDLYAKFRDDMEDIVTTTDLPRFRQTPYSPEPYLEGAYVFKYRGKYHLVHAAWDRTSVNADGTVRQAYDVPAAGRVQYQYDAIVAVADRFEGPYSKRYTAGVGAGHNNFFVDHRGGLWATYFLNPAAGYWSGASRVAESAVPGVVRLEWTGPAGGRLYVKRGSGGPGSGH | failed |
| MTEVNLNIYSPRWGRHETYIVELHKDYMEISMGAVTIKATYSENQDPEWSEETLQDIMNNDSVYPPEITQNLFQHAWLEWRKGALDNDEVTRELELVAQWVNKVTEAKPNSDFWRKYF | not failed |
| MNMNHYRPVILADQRVVSDFELDPLTRKISIKILQGHEQGNKGMVDTLRQNLQQRLGVPVEIPLALMNHLVKLVRDGNEVITATLAAGNDINEDGKAASYQVIDAEPGDHTGVQVGLAIDIGTTTVVVYLVNMVNGDIIAKASDYNGQIKLGDDILSRIMAAREEKGLQELQALIVNTLNALIQQLCLEAELKPQAITGVCIGANTTMVHLCLGLDPGSICRAPYRPAVNNAGIFCAGEIGLAVHPLAPTYCLPSIGSYIGGDVLAGILVSGMHKQEEVALLADIGTNGEFILGNQEWLVGCAGAAGPALEGGVTEWGIRAEQGAVDQVSIDSEHHVGYTTIDNAPARGICGSGLIDSLAELFLNGLINRAARFTDGRERFTIVPADESATGKEIFISQKDINSLMRTKGAVNAALEVLMESVGCQWEEIAKFYAAGAFGQYLPIESAVTIGLYPDLPREQMLRLGNSSGEGARQVLLSNSKRQEIEEIAGKITYFEMNASSSFMDKYGGSRFLPHTNMDLFPSVQEKLAVRQRSRC | failed |
| MHIAIIGAAGMVGRKLTQRLVKDGSLGGKPVEKFTLIDVFQPEAPAGFSGAVDARAADLSAPGEAEKLVEARPDVIFHLAAIVSGEAELDFDKGYRINLDGTRYLFDAIRIANGKDGYKPRVVFTSSIAVFGAPLPYPIPDEFHTTPLTSYGTQKAICELLLSDYSRRGFFDGIGIRLPTICIRPGKPNAAASGFFSNILREPLVGQEAVLPVPESIRHWHASPRSAVGFLIHGAMIDVEKVGPRRNLSMPGLSATVGEQIEALRKVAGEKAVALIRREPNEMIMRMCEGWAPGFEAKRARELGFTAESSFEEIIQVHIEDELGGSLK | not failed |
| MMEERANLMHMMKLSIKVLLQSALSLGRSLDADHAPLQQFFVVMEHCLKHGLKVKKSFIGQNKSFFGPLELVEKLCPEASDIATSVRNLPELKTAVGRGRAWLYLALMQKKLADYLKVLIDNKHLLSEFYEPEALMMEEEGMVIVGLLVGLNVLDANLCLKGEDLDSQVGVIDFSLYLKDVQDLDGGKEHERITDVLDQKNYVEELNRHLSCTVGDLQTKIDGLEKTNSKLQEELSAATDRICSLQEEQQQLREQNELIRERSEKSVEITKQDTKVELETYKQTRQGLDEMYSDVWKQLKEEKKVRLELEKELELQIGMKTEMEIAMKLLEKDTHEKQDTLVALRQQLEEVKAINLQMFHKAQNAESSLQQKNEAITSFEGKTNQVMSSMKQMEERLQHSERARQGAEERSHKLQQELGGRIGALQLQLSQLHEQCSSLEKELKSEKEQRQALQRELQHEKDTSSLLRMELQQVEGLKKELRELQDEKAELQKICEEQEQALQEMGLHLSQSKLKMEDIKEVNQALKGHAWLKDDEATHCRQCEKEFSISRRKHHCRNCGHIFCNTCSSNELALPSYPKPVRVCDSCHTLLLQRCSSTAS | not failed |
| MREIIVDNFAGGGGASTGIELAIGRSVDIAINHDPNAVAMHTTNHPDTLHYCESVYSIRPKVATAGRRVGLAWFSPDCRHFSKAKGAKPVEKTIRGLAWIVIRWALDVGPRVMMLENVEEFKTWGPLLAAEMRPDPERVGETFQAFVGMLTTGIPADHPALLECCEFLNISLDSEDAARLVNGLGYTVEYRELRACDYGAPTIRKRFFMVMRRDGQPIVWPEATHGDPKSPAVLAGKLAPWRTAAECIDWSIPAPSIFDRKKPLVENSLKRIARGI | failed |
| MRVNGLTKGFFILIVFIVTLAFFDVLSPYYSAILWAAILAVIFNPVKNKIRTRLGERNGLAALMTIVIICLIVFTPLAIILSSLAYELNLVYSKLQHNDTQFPTVVASLFAHLPGWARSFLADHNLDSAQQIQQQLSDAALKGGQYLAGSAFLIGKGTFGFTVSFGIMLYLLFFLLKDGPYLVLLILESLPLSSYVKQHLFAKFAAVARATVKGTVAVALAQGALGGFAFWIAGLDGSILWGALMAFLSLIPAVGSAIIWVPAAIYLFATGQLWQGAFIVGFFVIVIGLVDNILRPLLVGKDTRMPDYLILIATLGGMEIYGINGFVIGPLIAALFIACWNLLSGREHAGNTDEIDEEFIEEAKNSRNE | failed |
| MAISDANRGGAPGAAPGPDPAHILHELAGLMAISPGRDFLDELVNRAVQRLGVDYAWVVLHGAKGEHARTVLSANCRMRWNGAESYLATGQSALAGVLSHATQYVCARDLERHVPGDLALRRLGAQACVAHALRDESGLQRGHVAFVFSEPLADPAIYVSALSACAAFTERAVLALDAERKARQEALQLASRYQALFEKAPVLINAFDARGKCILWNLECERKFGWSMEEVNNHPEPLALFYPDPQTRARVVASVSQAPGRAFEEWHPVTRAGKVLSTLWSNIVLESGTIVNIGLDITERKRAELALTRLATIDSLTDCWNRAEILKILRQEITRLRQHPDQPLAVVMLDLDHFKQLNDLHGHLVGDAALRYFSDQLRSNLRGTDFVGRIGGEEFLALLPGCDGDAALAMADRLRAALRNDPFTTEGQAAPLSVSVGIAFATPEDTAVSDVMRRADTALYEAKRRGRDRAVVYFG | failed |
| QAIHNDKSLLSPFSELNTDNRTKREESGSTFKEQKGGEFSKLLKQSINELNNTQEQSDKALADMATGQIKDLHQAAIAIGKAETSMKLMLEVRNKAISAYKELLRTQI | failed |
| STIIYIKDLNGRYTLVNNKYCEVLGIERRKIIGAMDFELFQPPLAELYQQNDQRANNSHDALHFEEPIPTPRGEIIYHMTKFDIRDDE | failed |
| DVLSSSNFILPDGIGVVMMSRLTNNRLQSRIAGYDVFKELLGVANKKKKRIFLYGAKKDVIKGVVSKISSEYPNIKIAGYSDGYVQDRTLVAKQIARANPDMVFVALGYPHQEKFIHNYRHLFPKAVSIGLGGSFDVFSGNVKRAPSWMIRLNLEWFYRLILNPWRWKRM | not failed |
| RAVAGWGARPSAAPARRRARSLGVPYIALEDGFLRSFGTGRHFPPLSLVVDRLGIYYDATRESELECLLASSRTLLDGIEDAVPEAMELVRERRLSKYNQGCFLATGVPADGRRRVLVVDQTEGDMSVTLGCAEAATFEAMLAAARAESPGALICVKTHPEVAAGDKSGYLSRVTDDADTVALRHDMNPLALLEQMDRVYVVSSQMGFEALMLDKPVTCFGMPWYAGWGVTDDRQRCERRGRARSVEELFAGAYFHYTRYLDPVLH | failed |
